Reference: publication PMC5303882, “Structure of the homodimeric androgen receptor ligand-binding domain” (Nature Communications, 2017)

Target: T1, Recombinant human androgen receptor ligand-binding domain (AR-LBD, residues 662-919), DHT-bound (human, UniProt P10275 662-919)
T1 construct: also called AR/NR3C4 LBD; liganded AR-LBD; source: recombinant, expressed as a fusion protein with thioredoxin, purified to homogeneity
Assay: SPR; BIAcore T200, 25 °C; DHT-bound AR-LBD amine-coupled to a CM5 chip at about 6,800 RU, UBA3 peptide as analyte; 50 mM HEPES pH 7.2, 50 mM Li2SO4, 5% glycerol, 1 mM DTT, 5 mM DHT; 1:1 Langmuir model; triplicate
Conditions: both partners purified

B1: Synthetic UBA3 peptide S59-V72 (LxxLL motif) (peptide)
peptide: STESLQFLLDTCKV
notes: also called UBA3-derived peptide; UBA3 59S-72V peptide; source: synthetic peptide, custom-synthesized at Pepmic
Work on B1 yielded a Kd of 0.0306 ± 0.0007 µM.
